Laboratory results taken from patent US20260242478A1 (published 2026).
Where no end group is shown, it is not given here.

B1: Phage-844 (peptide)
peptide: YCDGHKPQYMEKCL
notes: Peptide-87 library clone, tested as clonal phage supernatant
B2: Phage-863 (peptide)
peptide: YCDGHLEEYMVKCM
notes: Peptide-87 library clone, tested as clonal phage (peptide fused to pIII)
B3: Phage-860 (peptide)
peptide: YCEGHSAEYMEKCL
notes: as for B2
B4: Phage-861 (peptide)
peptide: YCSGHSAEYMLKCL
notes: as for B2
B5: Phage-849 (peptide)
peptide: YCDGHSPEYMNKCL
notes: as for B1
B6: Phage-855 (peptide)
peptide: YCDGHSLQYMDKCL
notes: as for B2
B7: Phage-866 (peptide)
peptide: YCDGHLPEYIFKCL
modifications: cysteine pairing not given here; also: fused to phage pIII coat protein (sequence and linker not given here)
notes: not shown: pIII coat protein of the bacteriophage to which the peptide is fused
B8: Phage-856 (peptide)
peptide: YCDGHYPEYMSKCL
notes: as for B2
B9: Phage-858 (peptide)
peptide: YCDGHAEKYMQKCL
notes: as for B2
B10: Phage-843 (peptide)
peptide: YCDGHVEPYLSKCL
modifications: cysteine pairing not given here; also: displayed on phage by fusion to pIII, pIII and linker sequence not given here
notes: as for B1
B11: Phage-854 (peptide)
peptide: YCEGHLPEYMQKCL
notes: as for B2
B12: Phage-853 (peptide)
peptide: YCSGHLPEYMQKCL
notes: as for B2
B13: Phage-862 (peptide)
peptide: YCEGHLPDYMQKCL
notes: as for B2
B14: Phage-865 (peptide)
peptide: YCAGHSQEHIQKCL
notes: as for B2
B15: Phage-864 (peptide)
peptide: YCEGHLQTYMAKCL
notes: as for B2
B16: Phage-850 (peptide)
peptide: YCDGHAPVYMAKCL
notes: as for B1
B17: Phage-859 (peptide)
peptide: YCEGHAIEYLAKCL
notes: as for B2
B18: Phage-869 (peptide)
peptide: YCAGHSAEYMAKCL
notes: as for B7
B19: Phage-848 (peptide)
peptide: YCHGHLQEYMAKCL
notes: as for B1
B20: Phage-857 (peptide)
peptide: YCDGHASEYMAKCL
notes: as for B2
B21: Phage-842 (peptide)
peptide: YCDGHSQEYMLKCL
modifications: cysteine pairing not given here; also: displayed on phage by fusion to pIII, pIII and linker sequence not given here
notes: as for B1
B22: Phage-868 (peptide)
peptide: YCDGHAEEYLWKCL
modifications: cysteine pairing not given here; also: fused to phage pIII coat protein (sequence and linker not given here)
notes: as for B7
B23: Phage-852 (peptide)
peptide: YCDGHHIEYLAKCL
notes: as for B1
B24: Phage-846 (peptide)
peptide: YCEGHLAQYMNKCL
notes: as for B1
B25: Phage-867 (peptide)
peptide: YCSGHLPEYMGKCL
modifications: cysteine pairing not given here; also: fused to phage pIII coat protein (sequence and linker not given here)
notes: as for B7
B26: Phage-871 (peptide)
peptide: YCDGHTQAYIQKCL
notes: as for B7
B27: Phage-872 (peptide)
peptide: YCDGHAIQYIGKCL
notes: as for B7
B28: Phage-873 (peptide)
peptide: YCDGHAAEFMMKCL
notes: as for B7
B29: Phage-841 (peptide)
peptide: YCDGHIPEYLAKCL
modifications: cysteine pairing not given here; also: displayed on phage by fusion to pIII, pIII and linker sequence not given here
notes: as for B1
B30: Phage-870 (peptide)
peptide: YCDGHSGVYMWKCL
notes: as for B7
B31: Phage-851 (peptide)
peptide: YCEGHSAEYMLKCL
notes: as for B1
B32: Phage-845 (peptide)
peptide: YCDGHIGEYMVKCL
notes: as for B1
B33: Phage-847 (peptide)
peptide: YCDGHVQEYMQKCL
notes: as for B1

Assays:
[1] = target: T1, Anti-CD28 Fab (SEQ ID NOs: 696, 697); assay: phage binding ELISA on captured anti-CD28 Fab, wells pre-incubated with CD28 antigen as competitor;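 note: crude clonal phage supernatants added to wells preloaded with CD28 antigen, bound phage read by HRP-conjugated anti-M13 antibody, control wells got blocking buffer alone without CD28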
T1 construct: In the phage ELISA the Fab was biotinylated and captured on neutravidin coated plates
T1 sequence (VH, as listed by the source, chain 1 of 2): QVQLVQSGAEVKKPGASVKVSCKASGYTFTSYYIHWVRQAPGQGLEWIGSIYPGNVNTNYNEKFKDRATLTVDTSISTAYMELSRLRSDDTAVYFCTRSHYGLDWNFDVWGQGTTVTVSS
T1 sequence (VL, as listed by the source, chain 2 of 2): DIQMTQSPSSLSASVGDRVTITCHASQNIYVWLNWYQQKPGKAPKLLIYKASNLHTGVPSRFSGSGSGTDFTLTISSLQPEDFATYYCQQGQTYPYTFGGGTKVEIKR
Description: (§1) After panning, phage infected bacteria were plated out and colonies picked into 96 well blocks. Clonal phage was then amplified and separated from bacterial cells via centrifugation.
(§2) Clonal phage were harvested as crude supematants and screened via standard ELISAs. […] Prior to the addition of clonal phage, wells were incubated with blocking buffer and CD28 antigen or blocking buffer alone. Without washing or aspirating, clonal phage supematants were then added to the wells and incubated for a short time. Wells were then washed followed by detection of bound phage using a horse radish conjugated anti-M13 antibody. Clonal phage of interest were then sent for sequence analysis.

[2] = target: T1, Anti-CD28 Fab (SEQ ID NOs: 696, 697); assay: phage binding ELISA, clonal phage on biotinylated anti-CD28 Fab captured on neutravidin plates, anti-M13 HRP detection
Description: as §1, §2

[3] = target: T2, Anti-CD28 Fab (SEQ ID NOs: 696, 697); assay: phage binding ELISA, clonal phage on biotinylated anti-CD28 Fab captured on neutravidin plates;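 note: crude clonal phage supernatants added to wells pretreated with CD28 antigen or blocking buffer only, bound phage detected by HRP-linked anti-M13 antibody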
T2 construct: Biotinylated and captured on neutravidin coated plates in the phage ELISA
T2 sequence (VH, as listed by the source, chain 1 of 2): as the sequence (VH, as listed by the source, chain 1 of 2) above
T2 sequence (VL, as listed by the source, chain 2 of 2): as the sequence (VL, as listed by the source, chain 2 of 2) above
Description: as §1, §2

[4] = target: T2, Anti-CD28 Fab (SEQ ID NOs: 696, 697); assay: phage binding ELISA on plate-bound anti-CD28 Fab, wells pre-incubated with CD28 antigen as competitor
Description: as §1, §2

[5] = target: T3, Anti-CD28 Fab (SEQ ID NOs: 696, 697); assay: phage binding ELISA; biotinylated Fab on neutravidin plate, clonal phage supernatant, anti-M13 HRP detection;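 note: phage from clones picked after panning, added to wells pre-incubated with blocking buffer with or without CD28 antigen, then briefly incubated and washed before detection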
T3 construct: In the phage ELISA the Fab was biotinylated and captured on neutravidin coated plates
T3 sequence (VH, as listed by the source, chain 1 of 2): as the sequence (VH, as listed by the source, chain 1 of 2) above
T3 sequence (VL, as listed by the source, chain 2 of 2): as the sequence (VL, as listed by the source, chain 2 of 2) above
Description: as §1, §2

[6] = target: T3, Anti-CD28 Fab (SEQ ID NOs: 696, 697); assay: phage binding ELISA on Fab coated plate; wells pre-incubated with CD28 antigen as competitor
Description: as §1, §2

Binder | Anti-CD28 Fab signal in the presence of CD28 [1] | Anti-CD28 Fab (SEQ ID NOs: 696, 697) signal [2] | Anti-CD28 Fab (SEQ ID NOs: 696, 697) signal [3] | Anti-CD28 Fab signal in the presence of CD28 [4] | other results
B1 | 0.08 | 1.76 |  |  | 
B2 |  |  | 1.73 | 0.06 | 
B3 |  |  | 1.73 | 0.07 | 
B4 |  |  | 1.73 | 0.08 | 
B5 | 0.06 | 1.75 |  |  | 
B6 |  |  | 1.75 | 0.06 | 
B7 |  |  |  |  | Anti-CD28 Fab (SEQ ID NOs: 696, 697) signal [5]: 1.73; Anti-CD28 Fab signal in the presence of CD28 [6]: 0.09
B8 |  |  | 1.75 | 0.06 | 
B9 |  |  | 1.74 | 0.06 | 
B10 | 0.1 | 1.76 |  |  | 
B11 |  |  | 1.75 | 0.07 | 
B12 |  |  | 1.75 | 0.08 | 
B13 |  |  | 1.73 | 0.07 | 
B14 |  |  | 1.73 | 0.09 | 
B15 |  |  | 1.73 | 0.07 | 
B16 | 0.06 | 1.75 |  |  | 
B17 |  |  | 1.74 | 0.07 | 

Binder | Anti-CD28 Fab signal in the presence of CD28 [1] | Anti-CD28 Fab (SEQ ID NOs: 696, 697) signal [2] | Anti-CD28 Fab (SEQ ID NOs: 696, 697) signal [3] | Anti-CD28 Fab signal in the presence of CD28 [4] | other results
B18 |  |  |  |  | Anti-CD28 Fab (SEQ ID NOs: 696, 697) signal [5]: 1.73; Anti-CD28 Fab signal in the presence of CD28 [6]: 0.07
B19 | 0.07 | 1.76 |  |  | 
B20 |  |  | 1.75 | 0.09 | 
B21 | 0.05 | 1.76 |  |  | 
B22 |  |  |  |  | Anti-CD28 Fab (SEQ ID NOs: 696, 697) signal [5]: 1.73; Anti-CD28 Fab signal in the presence of CD28 [6]: 0.06
B23 | 0.1 | 1.75 |  |  | 
B24 | 0.07 | 1.76 |  |  | 
B25 |  |  |  |  | Anti-CD28 Fab (SEQ ID NOs: 696, 697) signal [5]: 1.73; Anti-CD28 Fab signal in the presence of CD28 [6]: 0.1
B26 |  |  |  |  | Anti-CD28 Fab (SEQ ID NOs: 696, 697) signal [5]: 1.73; Anti-CD28 Fab signal in the presence of CD28 [6]: 0.06
B27 |  |  |  |  | Anti-CD28 Fab (SEQ ID NOs: 696, 697) signal [5]: 1.72; Anti-CD28 Fab signal in the presence of CD28 [6]: 0.09
B28 |  |  |  |  | Anti-CD28 Fab (SEQ ID NOs: 696, 697) signal [5]: 1.72; Anti-CD28 Fab signal in the presence of CD28 [6]: 0.06
B29 | 0.06 | 1.76 |  |  | 
B30 |  |  |  |  | Anti-CD28 Fab (SEQ ID NOs: 696, 697) signal [5]: 1.73; Anti-CD28 Fab signal in the presence of CD28 [6]: 0.08
B31 | 0.07 | 1.75 |  |  | 
B32 | 0.66 | 1.76 |  |  | 
B33 | 0.07 | 1.76 |  |  | 
